The values that follow come from publication PMC7316157 (Journal of the American Chemical Society, 2012).

Series [1] concerns the target L-Ac-(FEFE)2-NH2. Nature of the series: ITC.
Series [2] concerns the molecule itself. The series can be described thus: TEM + CD + IR spectroscopy of fibrils.
Series [3] has as its target T1, L-Ac-(FEFE)2-NH2.
T1 peptide: Ac-FEFEFEFE-NH2
The series can be described thus: ITC. (In general: In ITC the heat of successive injections is recorded.)

Series [4] deals with the molecule itself. The series can be described thus: isotope-edited IR spectroscopy.

Like-named read-outs stand apart in the source and are kept apart here.

D-Ac-(FKFK)2-NH2 (peptide): in the series with L-Ac-(FEFE)2-NH2 [1], the dH was -31.6 kcal/mol.

B1: L-Ac-(FKFE)2-NH2 (peptide)
peptide: Ac-FKFEFKFE-NH2
Take B1: the binding result in series [2] is “binds”.

B2: L-Ac-(FKFK)2-NH2 (peptide)
peptide: Ac-FKFKFKFK-NH2
B2: the dH in the series with L-Ac-(FEFE)2-NH2 [3] is -40.9 ± 0.6 kcal/mol.

B3: L-Ac-(FKFE)2-NH2 doubly 1-13C-labeled at Phe 1/Phe 7 (peptide)
peptide: Ac-F(1‑13C)KFEFKF(1‑13C)E-NH2
B3: the binding result in series [4] is “binds”.
